{"source": "paper PMC4772129", "about": "“nagZ Triggers Gonococcal Biofilm Disassembly” (Scientific Reports, 2016)", "test_system": "CC(=O)N[C@H]1[C@H](Oc2ccc([N+](=O)[O-])cc2)O[C@H](CO)[C@@H](O)[C@@H]1O", "assay": "purified protein", "settings": "KPO4 buffer 200 mM, pH 8.0, 37 °C (standard assay)"}
{"substance": "NagZ (Neisseria gonorrhoeae FA 1090)", "values": [{"measurement": "Km", "result": 3.2, "unit": "mM"}]}
